This note sets out measurements from PMC5863373, “Characterization of association of human mitochondrial lysyl-tRNA synthetase with HIV-1 Pol and tRNA3^Lys” (BMC Biochemistry, 2018).

Assay [1] deals with T1, HIV-1 integrase with a C-terminal His6 tag (HIV-1 (pNL4-3)).
T1 construct: source: High Five insect cells (baculovirus), purified (Ni-NTA, Mono S); not shown: His6, C-terminal, kept
The experiment in a line: AlphaScreen or HTRF. To be noted: both partners purified. For orientation: In Alpha technology, singlet oxygen from a donor bead excites a nearby acceptor bead.

The target of assay [2] is T2, human mitochondrial lysyl-tRNA synthetase with a C-terminal HA-tag (human, UniProt Q15046-2).
T2 construct: also called mLysRS; mLysRS-HA; source: E. coli, purified as described [12]
The experiment in a line: AlphaScreen or HTRF. Conditions: both partners purified.

As a reminder, the Kd is the concentration at which binding is half-saturated. A high value points to a looser complex.

B1: mLysRS derivative with a C-terminal deletion of 22 aminoacid residues, with a C-terminal HA-tag (domain or fragment)
chain: not shown
In assay [1], B1 showed a Kd of 8.3 nM.

B2: p38, scaffold protein of the multi-synthetase complex (AIMP2), His-tagged (natural protein, human, UniProt Q13155 1-320, looked up)
chain: MPMYQVKPYHGGGAPLRVELPTCMYRLPNVHGRSYGPAPGAGHVQEESNLSLQALESRQDDILKRLYELKAAVDGLSKMIQTPDADLDVTNIIQADEPTTLTTNALDLNSVLGKDYGALKDIVINANPASPPLSLLVLHRLLCEHFRVLSTVHTHSSVKSVPENLLKCFGEQNKKQPRQDYQLGFTLIWKNVPKTQMKFSIQTMCPIEGEGNIARFLFSLFGQKHNAVNATLIDSWVDIAIFQLKEGSSKEKAAVFRSMNSALGKSPWLAGNELTVADVVLWSVLQQIGGCSVTVPANVQRWMRSCENLAPFNTALKLLK
notes: also called His-tagged p38
In assay [2], B2 displayed a Kd of 0.5 nM.
